In patent publication US8735553 (BEIGENE SWITZERLAND, dated 2014):
Read-outs that look alike come from different tables or passages of the source.

How the values were obtained:
human FcγRI [1] = target: T1, human FcγRI (human, UniProt P12314 16-374); experiment: flow cytometry, FcγR+ HEK293 cells
T1 construct: whole, on cells; also called FcγR1
Method: (§1) Binding of various IgG4 mutants to FcγRs was determined by flow cytometry. In brief, a series of HEK293 transfectants expressing human FcγRs were established. These transfectants expressed FcγRI, FcγRIIA, FcγRIIB or FcγRIIIA Multi-subunit FcγRs (i.e., FcγR1 and FcγRIIIA) were co-expressed with FcRγ. Polymorphic variants (i.e., FcγRIIA H131 and R131, FcγRIIIA F158 and V158) were also included.

human FcγRIIIA (F158) [2] = target: T2, human FcγRIIIA (F158) (human, UniProt P08637 17-254); experiment: flow cytometry, FcγR+ HEK293 cells
T2 construct: whole, on cells
Method: as §1

human FcγRIIIA (V158) = target: T3, human FcγRIIIA (V158) (human, UniProt P08637 17-254); experiment: flow cytometry, FcγR+ HEK293 cells
T3 construct: whole, on cells; also called CD16 (V158 allele)
Method: as §1

human FcγRI [3] = target: T1, human FcγRI; experiment: flow cytometry, FcγR+ HEK293 cells; remark: listed apart in the source
Method: as §1

human FcγRIIA (H131) = target: T4, human FcγRIIA (H131) (human, UniProt P12318 34-317); experiment: flow cytometry, FcγR+ HEK293 cells
T4 construct: whole, on cells
T4 sequence (looked up): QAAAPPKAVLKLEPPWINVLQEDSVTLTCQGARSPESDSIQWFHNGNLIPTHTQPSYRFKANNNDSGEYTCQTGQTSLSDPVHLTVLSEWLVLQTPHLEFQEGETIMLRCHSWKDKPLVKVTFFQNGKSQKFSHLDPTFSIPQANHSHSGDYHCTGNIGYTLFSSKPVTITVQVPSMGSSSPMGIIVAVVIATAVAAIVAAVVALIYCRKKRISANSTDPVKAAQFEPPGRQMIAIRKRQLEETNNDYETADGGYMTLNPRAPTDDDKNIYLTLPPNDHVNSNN
Method: as §1

human FcγRIIIA (F158) [4] = target: T2, human FcγRIIIA (F158); experiment: flow cytometry, FcγR+ HEK293 cells; remark: listed apart in the source
Method: as §1

human FcγRIIA (R131) = target: T5, human FcγRIIA (R131) (human, UniProt P12318 34-317); experiment: flow cytometry, FcγR+ HEK293 cells
T5 construct: whole, on cells
T5 sequence (looked up): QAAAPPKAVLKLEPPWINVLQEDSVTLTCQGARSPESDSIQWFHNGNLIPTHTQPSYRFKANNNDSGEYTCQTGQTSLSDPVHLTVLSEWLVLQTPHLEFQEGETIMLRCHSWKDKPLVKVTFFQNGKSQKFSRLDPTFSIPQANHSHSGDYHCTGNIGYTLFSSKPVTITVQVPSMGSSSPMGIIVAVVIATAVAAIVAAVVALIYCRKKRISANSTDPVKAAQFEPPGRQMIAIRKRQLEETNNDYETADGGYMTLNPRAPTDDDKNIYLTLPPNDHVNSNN
Method: as §1

[5] = target: P3Z chimeric PD-1 receptor (human); experiment: cell-based or functional assay
[6] = target: T6, human PD-1 expressed on cells (human, UniProt Q15116 25-288); experiment: cell-based or functional assay
[7] = target: T6, human PD-1 expressed on cells; experiment: cell-based or functional assay; remark: listed apart in the source
[8] = target: P3Z chimeric PD-1 receptor (human); experiment: cell-based or functional assay; remark: listed apart in the source
[9] = target: T6, human PD-1 expressed on cells; experiment: cell-based or functional assay; remark: listed apart in the source
[10] = target: T6, human PD-1 expressed on cells; experiment: FACS on PD-1-expressing cells, goat anti-mouse IgG detection
[11] = target: T6, human PD-1 expressed on cells; experiment: cell-based or functional assay; remark: listed apart in the source
[12] = target: T6, human PD-1 expressed on cells; experiment: cell-based or functional assay; remark: listed apart in the source
[13] = target: P3Z chimeric PD-1 receptor (human); experiment: cell-based or functional assay; remark: listed apart in the source
[14] = target: T6, human PD-1 expressed on cells; experiment: FACS on PD-1-expressing cells
[15] = target: P3Z chimeric PD-1 receptor (human); experiment: cell-based or functional assay; remark: listed apart in the source
[16] = target: T6, human PD-1 expressed on cells; experiment: cell-based or functional assay; remark: listed apart in the source
[17] = target: T6, human PD-1 expressed on cells; experiment: FACS on HuT78/PD-1 cells, MFI against Ab concentration (unit taken from the x axis, µg/ml)
Method: To block human Fc receptors, cells were pre-incubated with human IgG (20 μg/ml) (Cat. No. H11296, LifeHolder, USA and Shanghai, China).
Dose-dependent reaction curve of murine mAbs binding to human PD-1 expressed on live cells by FACS analyses. […] MFI stands for mean fluorescence intensity. HuT78/PD-1 cells were suspended in 96-well plate at 5 ×10^4 cells per well for FACS.

PD-1-EC/Fc = target: T7, PD-1-EC/Fc (human, UniProt Q15116 21-168); experiment: SPR (BIAcore T-200), mAb captured on anti-mouse Fc chip, PD-1/Fc injected
T7 construct: AA 1-168 includes the signal peptide; Made in 293-F cells; also called PD-1/Fc
Method: Anti-mouse Fc CM5 biosensor chip (GE Healthcare) was generated using a standard primary amine coupling protocol. […] Association rates (K_a or $kon$) and dissociation rates (K_d or $koff$) were calculated using the one-to-one Langmuir binding model (BIA Evaluation Software, GE Life Sciences). The equilibrium dissociation constant (K_D) was calculated as the ratio $koff/kon$.

[18] = target: T6, human PD-1 expressed on cells; experiment: FACS on PD-1-expressing cells; remark: listed apart in the source

T6 sequence (Q15116 25-288): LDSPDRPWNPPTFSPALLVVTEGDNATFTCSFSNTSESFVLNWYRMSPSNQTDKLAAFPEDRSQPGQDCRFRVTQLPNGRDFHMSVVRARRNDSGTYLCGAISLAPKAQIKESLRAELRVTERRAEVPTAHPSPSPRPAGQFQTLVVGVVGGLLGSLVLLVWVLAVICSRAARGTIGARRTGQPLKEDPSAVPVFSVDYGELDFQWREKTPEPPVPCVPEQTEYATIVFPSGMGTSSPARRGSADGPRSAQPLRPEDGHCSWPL
T7 sequence (Q15116 21-168 limits assumed): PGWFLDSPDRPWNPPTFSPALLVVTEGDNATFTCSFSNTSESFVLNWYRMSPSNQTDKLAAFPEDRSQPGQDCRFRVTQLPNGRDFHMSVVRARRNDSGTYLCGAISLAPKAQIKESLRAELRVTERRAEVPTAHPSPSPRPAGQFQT
T2 sequence (P08637 17-254): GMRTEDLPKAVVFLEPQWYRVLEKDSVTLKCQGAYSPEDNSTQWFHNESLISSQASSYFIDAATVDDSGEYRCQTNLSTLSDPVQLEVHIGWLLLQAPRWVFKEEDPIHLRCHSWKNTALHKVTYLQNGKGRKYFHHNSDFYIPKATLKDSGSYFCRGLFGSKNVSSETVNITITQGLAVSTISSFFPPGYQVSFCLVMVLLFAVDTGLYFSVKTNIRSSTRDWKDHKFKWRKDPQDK
T1 sequence (P12314 16-374): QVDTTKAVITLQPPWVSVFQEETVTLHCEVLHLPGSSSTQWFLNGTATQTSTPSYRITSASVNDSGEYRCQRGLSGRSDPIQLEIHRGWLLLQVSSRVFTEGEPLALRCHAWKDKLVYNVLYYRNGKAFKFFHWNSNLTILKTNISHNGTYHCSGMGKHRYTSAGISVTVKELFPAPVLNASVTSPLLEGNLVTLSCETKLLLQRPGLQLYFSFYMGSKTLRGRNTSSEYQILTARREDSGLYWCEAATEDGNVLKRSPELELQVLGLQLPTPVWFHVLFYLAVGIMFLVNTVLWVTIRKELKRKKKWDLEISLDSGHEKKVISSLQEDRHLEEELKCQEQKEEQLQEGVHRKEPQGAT
Sequence of P3Z chimeric PD-1 receptor (human) (chain, as listed by the source mutant limits assumed): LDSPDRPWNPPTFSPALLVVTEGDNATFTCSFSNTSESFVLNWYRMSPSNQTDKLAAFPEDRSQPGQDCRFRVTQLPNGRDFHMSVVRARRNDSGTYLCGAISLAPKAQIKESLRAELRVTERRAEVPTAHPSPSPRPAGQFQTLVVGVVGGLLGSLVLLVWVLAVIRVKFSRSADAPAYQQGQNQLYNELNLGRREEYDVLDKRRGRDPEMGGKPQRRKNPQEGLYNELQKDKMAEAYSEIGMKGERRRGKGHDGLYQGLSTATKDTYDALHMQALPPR
T3 sequence (P08637 17-254 F176V limits assumed): as the sequence (P08637 17-254) above, with F160V counted along it

B1: hu317-4B6/IgG4mt6 (antibody)
heavy: QVQLQESGPGLVKPSETLSLTCTVSGFSLTSYGVHWIRQPPGKGLEWIGVIYADGSTNYNPSLKSRVTISKDTSKNQVSLKLSSVTAADTAVYYCARAYGNYWYIDVWGQGTTVTVSSASTKGPSVFPLAPCSRSTSESTAALGCLVKDYFPEPVTVSWNSGALTSGVHTFPAVLQSSGLYSLSSVVTVPSSSLGTKTYTCNVDHKPSNTKVDKRVESKYGPPCPPCPAPPVAGGPSVFLFPPKPKDTLMISRTPEVTCVVVAVSQEDPEVQFNWYVDGVEVHNAKTKPREEQFNSTYRVVSVLTVLHQDWLNGKEYKCKVSNKGLPSSIEKTISKAKGQPREPQVYTLPPSQEEMTKNQVSLTCLVKGFYPSDIAVEWESNGQPENNYKTTPPVLDSDGSFFLYSRLTVDKSRWQEGNVFSCSVMHEALHNHYTQKSLSLSLGK
VL: DIVMTQSPDSLAVSLGERATINCKSSESVSNDVAWYQQKPGQPPKLLINYAFHRFTGVPDRFSGSGYGTDFTLTISSLQAEDVAVYYCHQAYSSPYTFGQGTKLEIK
notes: Light chain constant region not restated for this format; copies: 2 + 2
MFI (human FcγRI [1]): 1 MFI

B2: hu317-4B6/IgG4mt10 (antibody)
heavy: QVQLQESGPGLVKPSETLSLTCTVSGFSLTSYGVHWIRQPPGKGLEWIGVIYADGSTNYNPSLKSRVTISKDTSKNQVSLKLSSVTAADTAVYYCARAYGNYWYIDVWGQGTTVTVSSASTKGPSVFPLAPCSRSTSESTAALGCLVKDYFPEPVTVSWNSGALTSGVHTFPAVLQSSGLYSLSSVVTVPSSSLGTKTYTCNVDHKPSNTKVDKRVESKYGPPCPPCPAPPVAGGPSVFLFPPKPKDTLMISRTPEVTCVVVAVSQEDPEVQFNWYVDGVEVHNAKTKPREEQFNSTYRVVSVLTVVHQDWLNGKEYKCKVSNKGLPSSIEKTISKAKGQPREPQVYTLPPSQEEMTKNQVSLTCLVKGFYPSDIAVEWESNGQPENNYKTTPPVLDSDGSFFLYSKLTVDKSRWQEGNVFSCSVMHEALHNHYTQKSLSLSLGK
VL: DIVMTQSPDSLAVSLGERATINCKSSESVSNDVAWYQQKPGQPPKLLINYAFHRFTGVPDRFSGSGYGTDFTLTISSLQAEDVAVYYCHQAYSSPYTFGQGTKLEIK
notes: as for B1
binding result (human FcγRIIIA (F158) [2]): no binding
binding result (human FcγRIIIA (V158)): no binding
binding result (human FcγRI [3]): no binding

B3: hu317-1/IgG4mt6 (antibody)
heavy: QVQLQESGPGLVKPSETLSLTCTVSGFSLTSYGVHWIRQPPGKGLEWLGVIWAGGSTNYNPSLKSRLTISKDNSKSQVSLKMSSVTAADTAVYYCARAYGNYWYIDVWGQGTTVTVSSASTKGPSVFPLAPCSRSTSESTAALGCLVKDYFPEPVTVSWNSGALTSGVHTFPAVLQSSGLYSLSSVVTVPSSSLGTKTYTCNVDHKPSNTKVDKRVESKYGPPCPPCPAPPVAGGPSVFLFPPKPKDTLMISRTPEVTCVVVAVSQEDPEVQFNWYVDGVEVHNAKTKPREEQFNSTYRVVSVLTVLHQDWLNGKEYKCKVSNKGLPSSIEKTISKAKGQPREPQVYTLPPSQEEMTKNQVSLTCLVKGFYPSDIAVEWESNGQPENNYKTTPPVLDSDGSFFLYSRLTVDKSRWQEGNVFSCSVMHEALHNHYTQKSLSLSLGK
VL: DIVMTQSPDSLAVSLGERATINCKASQSVSNDVAWYQQKPGQPPKLLINYAFHRFTGVPDRFSGSGYGTDFTLTISSLQAEDVAVYYCHQAYSSPYTFGGGTKLEIK
notes: as for B1
MFI (human FcγRIIA (H131)): 1 MFI
MFI (human FcγRIIIA (F158) [4]): 0.9 MFI
MFI (human FcγRIIA (R131)): 0.8 MFI

B4: murine mAb 317 (antibody, V domains shown)
VH: QVQLKESGPGLVAPSKNLSITCTVSGFSLTSYGVHWIRQPPGKGLEWLGVIWAGGSTNYNSALMSRLSISKDNSRSQVFLRMNSLQTDDTAMYYCARAYGNYWYIDVWGAGTTVTVSS
VL: DIVMTQTPKFLLVSAGDRVTITCKASQSVSNDVAWYQQKPGQSPKLLINYAFHRFTGVPDRFTGSGYGTDFIFTISTVQAEDLAVYFCHQAYSSPYTFGGGTKLEMK
notes: Murine hybridoma antibody; also called mu317
Assay-2 IL-2 release, IC50 (HuT78/P3Z + HEK293/PD-L1) [5]: 0.11 µg/mL
Assay-2 IL-2 release, Max inhibition (HuT78/P3Z + HEK293/PD-L1) [5]: 99.5%
Assay-1 IL-2 release, EC50 (HuT78/PD-1 + HEK293/OS8/PD-L1) [6]: 0.11 µg/mL
Assay-1 IL-2 release, Top line (HuT78/PD-1 + HEK293/OS8/PD-L1) [6]: 346 pg/mL
IFN-γ secreted, EC50 (NK92MI/PD-1 + SK-MES-1/PD-L1) [7]: 0.4 µg/mL
Inhibition of IL-2 secretion, IC50 (HuT78/P3Z + HEK293/PD-L2) [8]: 0.02 µg/mL
Cytotoxicity of NK92MI/PD-1 cells against SK-MES-1/PD-L1, EC50 [9]: 0.5 µg/mL
EC50 [10]: 0.11 µg/mL
IL-2 release, EC50 (HuT78/PD-1 + HEK293/OS8/PD-L1) [11]: 0.083 µg/mL
IL-2 release, EC50 (HuT78/PD-1 + HEK293/OS8/PD-L2) [12]: 0.032 µg/mL
Inhibition of IL-2 secretion, IC50 (HuT78/P3Z + HEK293/PD-L1) [13]: 0.083 µ/ml

B5: murine mAb 326 (antibody, V domains shown)
VH: QIQLVQSGPELKKPGETVKISCKASGYTFTNYGMNWVKQAPGKGLKWMGWINNNNGEPTYAEEFKGRFAFSLETSASTAYLQINNLKNEDTATYFCARDVMDYWGQGTSVTVSS
VL: DIVLTQSPASLAVSLGQRATISCRASESVDNYGYSFMHWYQQKPGQPPQLLIYRASNLESGIPARFSGSGSRTGFTLTINPVEADDVATYYCQQSKEYPTFGGGTKLEVK
notes: Murine hybridoma antibody; also called mu326
EC50 [14]: 0.126 µg/mL
Top MFI [14]: 195 MFI
IFN-γ secreted, EC50 (NK92MI/PD-1 + SK-MES-1/PD-L1) [7]: 0.2 µg/mL
Inhibition of IL-2 secretion, IC50 (HuT78/P3Z + HEK293/PD-L2) [8]: 0.018 µg/mL
Assay-2 IL-2 release, IC50 (HuT78/P3Z + HEK293/PD-L1) [15]: 0.14 µg/mL
Assay-2 IL-2 release, Max inhibition (HuT78/P3Z + HEK293/PD-L1) [15]: 96.9%
Assay-1 IL-2 release, EC50 (HuT78/PD-1 + HEK293/OS8/PD-L1) [16]: 0.038 µg/mL
Assay-1 IL-2 release, Top line (HuT78/PD-1 + HEK293/OS8/PD-L1) [16]: 1150 pg/mL
Cytotoxicity of NK92MI/PD-1 cells against SK-MES-1/PD-L1, EC50 [9]: 0.37 µg/mL
EC50 [17]: 0.126 µg/mL
IL-2 release, EC50 (HuT78/PD-1 + HEK293/OS8/PD-L1) [11]: 0.053 µg/mL
IL-2 release, EC50 (HuT78/PD-1 + HEK293/OS8/PD-L2) [12]: 0.038 µg/mL
Kd (PD-1-EC/Fc): 0.324 nM
koff (PD-1-EC/Fc): 7.79e-05 s⁻¹
kon (PD-1-EC/Fc): 240000 M⁻¹ s⁻¹
Inhibition of IL-2 secretion, IC50 (HuT78/P3Z + HEK293/PD-L1) [13]: 0.039 µ/ml

B6: hu326-3B1 (antibody, V domains shown)
VH: QVQLVQSGSELKKPGASVKVSCKASGYTFTNYGMNWVRQAPGQGLKWMGWINNNNGEPTYAQDFRGRFVFSLDTSASTAYLQISSLKTEDTAVYYCARDVMDYWGQGTLVTVSS
VL: DIVLTQSPASLAVSPGQRATITCRASESVDNYGYSFMHWYQQKPGQPPKLLIYRASNLESGVPARFSGSGSRTDFTLTINPVEANDTANYYCQQSKEYPTFGGGTKVEIK
notes: Humanized mAb
EC50 [18]: 0.165 µg/mL

B7: hu326-4A3/IgG4mt10 (antibody)
heavy: QVQLVQSGSELKKPGASVKVSCKASGYTFTNYGMNWVRQAPGQGLKWMGWINNNNAEPTYAQDFRGRFVFSLDTSASTAYLQISSLKTEDTAVYYCARDVMDYWGQGTLVTVSSASTKGPSVFPLAPCSRSTSESTAALGCLVKDYFPEPVTVSWNSGALTSGVHTFPAVLQSSGLYSLSSVVTVPSSSLGTKTYTCNVDHKPSNTKVDKRVESKYGPPCPPCPAPPVAGGPSVFLFPPKPKDTLMISRTPEVTCVVVAVSQEDPEVQFNWYVDGVEVHNAKTKPREEQFNSTYRVVSVLTVVHQDWLNGKEYKCKVSNKGLPSSIEKTISKAKGQPREPQVYTLPPSQEEMTKNQVSLTCLVKGFYPSDIAVEWESNGQPENNYKTTPPVLDSDGSFFLYSKLTVDKSRWQEGNVFSCSVMHEALHNHYTQKSLSLSLGK
VL: DIVLTQSPASLAVSPGQRATITCRASESVDNYGYSFMHWYQQKPGQPPKLLIYRASNLESGVPARFSGSGSGTDFTLTINPVEAEDTANYYCQQSKEYPTFGGGTKVEIK
notes: as for B1
binding result (human FcγRIIIA (F158) [2]): no binding
binding result (human FcγRIIIA (V158)): no binding
binding result (human FcγRI [3]): no binding
